Results on 1 molecule are retold here after US6277558.

For the assay, the target named is GP sera of Examples 8 to 11 (anti sera from two GP patients). In words: inhibition ELISA: peptide preincubated with GP antibodies for 12 hours, then plates coated with α3 NC1 bovine monomer. (In general: In an ELISA, binding on a coated surface is turned into a signal by an enzyme label.)

Ends that are not written are not given here.

B1: α3 carboxy terminal peptide (12 Mer synthetic peptide of human α3(IV) NC1) (peptide)
peptide: ISRCQVCMKKRH
modifications: also: the two cysteines blocked, group not given here
Molecule B1 yielded a percent inhibition at saturation of 60%.
